# Measured values: PMC3977201
# Target: APOBEC3G labeled with EGFP (A3G-EGFP), wild type (human), Q9HC16
# Test: fluorescence fluctuation spectroscopy
# Conditions: remark: other sources report otherwise
binder,measurement,value
"APOBEC3G labeled with EGFP (A3G-EGFP), wild type, Q9HC16 1-384 (natural protein) MKPHFRNTVERMYRDTFSYNFYNRPILSRRNTVWLCYEVKTKGPSRPPLDAKIFRGQVYSELKYHPEMRFFHWFSKWRKLHRDQEYEVTWYISWSPCTKCTRDMATFLAEDPKVTLTIFVARLYYFWDPDYQEALRSLCQKRDGPRATMKIMNYDEFQHCWSKFVYSQRELFEPWNNLPKYYILLHIMLGEILRHSMDPPTFTFNFNNEPWVRGRHETYLCYEVERMHNDTWVLLNQRRGFLCNQAPHKHGFLEGRHAELCFLDVIPFWKLDLDQDYRVTCFTSWSPCFSCAQEMAKFISKNKHVSLCIFTARIYDDQGRCQEGLRTLAEAGAKISIMTYSEFKHCWDTFVDHQGCPFQPWDGLDEHSQDLSGRLRAILQNQEN",normalized brightness at 1 uM,10
